These results are taken from PMC3903488, “Characterization of a Ginsenoside-Transforming β-glucosidase from Paenibacillus mucilaginosus and Its Application for Enhanced Production of Minor Ginsenoside F2” (PLoS ONE, 2014).

Substrate in series [1]: O=[N+]([O-])c1ccc(O[C@@H]2O[C@H](CO)[C@@H](O)[C@H](O)[C@H]2O)cc1
The series is described as follows: purified protein. The note with it: 0.1-10.0 mM substrate, standard activity assay 50 mM sodium phosphate pH 7.5, 37 °C.

Substrate in series [2]: CC(C)=CCC[C@](C)(O[C@@H]1O[C@H](CO)[C@@H](O)[C@H](O)[C@H]1O)[C@H]1CC[C@]2(C)[C@@H]1[C@H](O)C[C@@H]1[C@@]3(C)CC[C@H](O[C@@H]4O[C@H](CO)[C@@H](O)[C@H](O)[C@H]4O[C@@H]4O[C@H](CO)[C@@H](O)[C@H](O)[C@H]4O)C(C)(C)[C@@H]3CC[C@]12C
The series is described as follows: initial velocity, non-linear regression. The series is classed as biochemical, Paenibacillus mucilaginosus. The note with it: 0.2-5.0 mM substrate; assay buffer not given. From the text:
(§1) initial velocity, non-linear regression on BglPm

Substrate in series [3]: CC(C)=CCC[C@](C)(O[C@@H]1O[C@H](CO[C@@H]2O[C@H](CO)[C@@H](O)[C@H](O)[C@H]2O)[C@@H](O)[C@H](O)[C@H]1O)[C@H]1CC[C@]2(C)[C@@H]1[C@H](O)C[C@@H]1[C@@]3(C)CC[C@H](O[C@@H]4O[C@H](CO)[C@@H](O)[C@H](O)[C@H]4O[C@@H]4O[C@H](CO)[C@@H](O)[C@H](O)[C@H]4O)C(C)(C)[C@@H]3CC[C@]12C
Nature of the series: initial velocity, non-linear regression. The note with it: 0.2-5.0 mM substrate; assay buffer not given. The series is classed as biochemical, Paenibacillus mucilaginosus.
Text: as §1

B1: BglPm (Paenibacillus mucilaginosus 3016) (protein)
chain: EYIFPQQFMFGSATAAYQVEGNNTNSDFWAEEHAEGSPYQDKSGDAVDHYRLYREDIALMASLGLKAYRFSIEWARIEPAPGQFSLSAIAHYRDVLQACYEHRLTPVVAMHHFSSPQWLMRFGGWGSEEVPERFAKYCEFVFQELGDLIPYVLTFNEVNLPVMLREVFSSIGIIPPVGIDGAAWTAPGWRASAAQLCGTTADRYVTFHMISDEPKIALLMEAHRRARQTIKRLQPNAKVGLSMALSDIQSVPGGEAWAQQKWQQYFEQYLPALEGDDFFGLQNYTREVYGPEGRVTPAADAELTQMKYEYYPEALGQVIRKVAKALTLPIFVTEHGVATDDDERRIEFIRRGLQGVHACLEEGIDVRGYLHWTTFDNFEWNAGYSMRFGLIGVDRTTQERTVKESARYLGRIASTKVL
notes: expressed in E. coli BL21(DE3)
As for B1, in series [1], the Km – broadly, the substrate concentration at which the rate is half of its maximum – was found to be 3240 ± 390 µM; the maximal velocity (Vmax) (as a rule, the rate approached at saturating substrate) was 10.2 µmol/min/mg; the catalytic constant (kcat) – broadly, the number of substrate molecules converted per active site and unit of time at saturation – was 8.13 s⁻¹; the kcat/Km (in general, the second-order rate constant that governs catalysis at low substrate concentration) is 2560 M⁻¹ s⁻¹. Besides, in series [2], the Km was 352 ± 53 µM, the Vmax turned out to be 0.484 µmol/min/mg, the kcat worked out at 0.601 ± 0.066 s⁻¹ and the kcat/Km worked out at 1780 ± 460 M⁻¹ s⁻¹. Further, in series [3], the Km turned out to be 384 ± 64 µM, the maximal velocity (Vmax) is 0.369 µmol/min/mg, the kcat stood at 0.458 ± 0.018 s⁻¹ and the kcat/Km is 1230 ± 250 M⁻¹ s⁻¹.
